Patent US20200317779A1
Substitutions are numbered along the chain they refer to.

B1: B08 (antibody, human IgG1, lambda, L234A L235A, V domains shown)
VH: EVQLVESGGGLVQPGGSLKLSCAASGFTFNTYAMNWVRQASGKGLEWVGRIRSKYNNYATYYADSVKDRFTISRDDSKNTLYLQMNSLKTEDTAVYYCVRHGNFGNSYVSWFAYWGQGTLVTVSS
VL: QAVVTQEPSLTVSPGGTVTLTCRSSTGAVTTSNYANWFQQKPGQAPRGLIGGTNKRAPWTPARFSGSLLGDKAALTLSGAQPEDEAEYYCALWYSNLWVFGGGTKLTVLG
B2: B16 (antibody, human IgG1, lambda, L234A L235A, V domains shown)
VH: B1 VH
VL: B1 VL with F38V
B3: A16 (antibody, human IgG1, lambda, L234A L235A, V domains shown)
VH: B1 VH with L81A
VL: B1 VL with F38V
B4: B15 (antibody, human IgG1, lambda, L234A L235A, V domains shown)
VH: B1 VH
VL: B1 VL with F38V, D71G

molecular target: recombinant cynomolgus monkey CD3ε/δ heterodimer (cynomolgus monkey) (UniProt Q95LI5); assay: ELISA, coated CD3ε/δ
Sequence (Q95LI5 22-117, stated change not applied, chain 1 of 2): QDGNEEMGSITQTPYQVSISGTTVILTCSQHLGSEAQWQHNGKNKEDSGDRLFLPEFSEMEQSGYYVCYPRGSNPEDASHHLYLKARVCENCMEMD
Sequence (Q95LI8 22-105, stated change not applied, chain 2 of 2, further chain): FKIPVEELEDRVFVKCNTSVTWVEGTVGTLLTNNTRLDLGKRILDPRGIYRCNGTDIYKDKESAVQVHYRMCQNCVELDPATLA

**Q.** For B1, which Absorbance (450 nm) is on record?
**A.** 2.19

**Q.** For B2, which Absorbance (450 nm) is on record?
**A.** 2.93

**Q.** How did the Absorbance (450 nm) turn out when B3 was run?
**A.** 2.8

**Q.** For B4, which Absorbance (450 nm) is on record?
**A.** 3.16

molecular target: recombinant human CD3ε/δ heterodimer (human) (UniProt P07766); assay: ELISA, coated CD3ε/δ
Sequence (P07766 23-126, stated change not applied, chain 1 of 2): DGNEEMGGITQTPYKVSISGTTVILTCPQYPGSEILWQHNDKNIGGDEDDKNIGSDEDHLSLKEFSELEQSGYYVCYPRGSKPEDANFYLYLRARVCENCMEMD
Sequence (P04234 22-105, stated change not applied, chain 2 of 2, further chain): as the sequence (Q95LI8 22-105, stated change not applied, chain 2 of 2, further chain) above, with V5I, K15N, V20I, T32S, N33D, N34I, A64T, N74S, L83V counted along it

**Q.** How did the Absorbance (450 nm) turn out when B1 was run?
**A.** 0.424

**Q.** How did the Absorbance (450 nm) turn out when B2 was run?
**A.** 2.37

**Q.** Which Absorbance (450 nm) does the source give for B3 here?
**A.** 2.54

**Q.** Which Absorbance (450 nm) does the source give for B4 here?
**A.** 2.71

molecular target: recombinant cynomolgus monkey CD3ε/δ heterodimer (cynomolgus monkey) (UniProt Q95LI5); assay: BLI (Octet), antigen on anti-Penta His sensor, antibody 50 nM

**Q.** Which Kd does the source give for B1 here?
**A.** 26.3 nM

**Q.** And the koff?
**A.** 0.00525 s⁻¹

**Q.** What about the kon of the same binder?
**A.** 199000 M⁻¹ s⁻¹

**Q.** Which results are given for B2?
**A.** Kd: 0.66 nM; koff: 0.000308 s⁻¹; kon: 466000 M⁻¹ s⁻¹

**Q.** Which results are given for B3?
**A.** Kd: 0.657 nM; koff: 0.000243 s⁻¹; kon: 370000 M⁻¹ s⁻¹

**Q.** What does the source list for B4?
**A.** Kd: 0.627 nM; koff: 0.000328 s⁻¹; kon: 523000 M⁻¹ s⁻¹

molecular target: recombinant human CD3ε/δ heterodimer (human) (UniProt P07766); assay: as above

**Q.** Which Kd does the source give for B1 here?
**A.** 27.6 nM

**Q.** What about the koff of the same binder?
**A.** 0.00407 s⁻¹

**Q.** What about the kon of the same binder?
**A.** 148000 M⁻¹ s⁻¹

**Q.** What does the source list for B2?
**A.** Kd: 0.445 nM; koff: 0.000144 s⁻¹; kon: 322000 M⁻¹ s⁻¹

**Q.** What does the source list for B3?
**A.** Kd: 0.293 nM; koff: 8.07e-05 s⁻¹; kon: 275000 M⁻¹ s⁻¹

**Q.** What does the source list for B4?
**A.** Kd: 0.521 nM; koff: 0.000193 s⁻¹; kon: 371000 M⁻¹ s⁻¹
